Data on six molecules can be found in US20240368264A1 (SHANGHAI NOVAMAB BIOPHARMACEUTICALS, published 2024).

One assay deals with TSLP-Fc antigen. The experiment in a line: BLI (Fortebio): antibody captured on Protein A probe, TSLP-Fc antigen 2-fold from 20 nM, global fit. On the procedure:
The binding kinetics of 14 blocking TSLP nanobodies were measured by Bio-layer interferometry (BLI). For kinetic measurements, candidate antibodies were diluted to 5 ug/mL in PBST buffer, TSLP-Fc antigen diluted in PBST buffer in 2-fold gradients in six concentration gradients (2-fold gradient dilution from 20 nM), and set the instrument operating conditions: Temperature 30° C., Shake speed 1000 rpm. Antibodies were captured using a probe already encapsulated with Protein A, capture time 60 s; Binding of gradient diluted antigen, binding time 240 s; dissociation time 300 s; 10 mM glycine (pH 1.7) regenerated 2 times for 5 s each. Fortebio Analysis version 9.0 was used to perform the analysis, Global mode was fitted and the binding rate (Kon), dissociation rate (Kdis) and dissociation constant KD were calculated.
(In general: BLI is a label-free optical method that tracks binding on a fibre tip over time.)

Assay [1] deals with Human TSLP antigen protein (human, UniProt Q969D9 29-159). In words: blocking ELISA: human TSLP coated, antibody dilutions with 0.02 ug/mL biotinylated TSLPR, SA-HRP, OD450; blocked partner: biotinylated TSLPR protein. On the procedure:
The above purified bivalent humanized antibodies were subjected to ELISA to detect blocking activity. […] After washing 5 times with PBST, 100 uL of TMB color-substrate solution was added and colour development at 37° C. for 10 min. The reaction was terminated by adding 2M H₂SO₄ 50 uL/well, and the absorption value was measured at 450 nm on an microplate reader.
Background: In an ELISA, binding on a coated surface is turned into a signal by an enzyme label.

Another assay deals with human TSLP factor (human, UniProt Q969D9 29-159). In words: cell-based or functional assay.
Another assay deals with TSLP-Biotin protein (UniProt Q969D9 29-159, biotinylated (site not stated)). The experiment in a line: flow cytometry blocking assay: antibody diluted 2-fold from 20 ug/mL with TSLP-Biotin on HEK293F/TSLPR transient cells, SA-PE, MFI; blocked partner: TSLPR on the cells. On the procedure:
The above 31 purified antibodies were again subjected to flow cytometry blocking activity assay. […] Centrifuged again and discard supernatant, add 200 uL PBS per well to resuspend cells, flow cytometry was performed to detect PE signal of sample.

B1: Nb5-31 (VHH)
VHH: QVQLQESGGGSVQAGGSLRLSCTASGFTSGGSDMGWYRQAPGNECDLVSYISSDGSTYYADSVKGRFTISQDNAKNTVYLQMNSLKPEDTAVYYCAATDYGLGPPPSSTGQCYGMDYWGKGTQVTVSS
notes: Camel nanobody before humanization
In the assay with TSLP-Fc antigen, B1 had a Kd of 0.115 nM, a koff of 0.000231 s⁻¹ and a kon of 2.02e+06 M⁻¹ s⁻¹.

B2: Bi-HuNb7-54 (VHH)
chain: EVQLLESGGGLVQPGETLRLSCTASGFTFDDSDMGWYRQAPGNECELVSIISSDGMTYYADSVKGRFTISQDNAKNTVYLQMNSLKPEDTAVYYCAATKYSSDYDVAEDWRRGVCGDMDYWGKGTLVTVSSGGGGSGGGGSGGGGSGGGGSEVQLLESGGGLVQPGETLRLSCTASGFTFDDSDMGWYRQAPGNECELVSIISSDGMTYYADSVKGRFTISQDNAKNTVYLQMNSLKPEDTAVYYCAATKYSSDYDVAEDWRRGVCGDMDYWGKGTLVTVSS
notes: also called humanized bivalent antibody; bivalent single domain antibody
In the case of B2, in assay [1], 0.141 µg/mL corresponded to half-maximal inhibition (IC50). In the assay with human TSLP factor, the “IC50 of inhibition of hTSLP-induced pSTAT5 (PE MFI, flow cytometry) in BaF3/TSLPR-IL7R cells” value (“IC50 of inhibition … in BaF3/TSLPR-IL7R cells” below) came out at 0.0198 ug/ml.

B3: Bi-HuNb10-63 (VHH)
chain: EVQLLESGGGLVQPGGSLRLSCTASGFTLDDSDMGWYRQAPGDECELVSTISSLGGTYYADSVKGRFTISHDNAKNTVYLQMNSLKPHDTAVYYCAPGTDRYSDCPNEYSVWGQGTLVTVSSGGGGSGGGGSGGGGSGGGGSEVQLLESGGGLVQPGGSLRLSCTASGFTLDDSDMGWYRQAPGDECELVSTISSLGGTYYADSVKGRFTISHDNAKNTVYLQMNSLKPHDTAVYYCAPGTDRYSDCPNEYSVWGQGTLVTVSS
notes: as for B2
In turn, B3 yielded an IC50 in assay [1] of 0.0824 µg/mL. For the same molecule, the “IC50 of inhibition … in BaF3/TSLPR-IL7R cells” value with human TSLP factor is 0.472 ug/ml.

B4: Nb10-63 (VHH)
VHH: QVQLQESGGGSVQAGGSLRLSCTASGFTLDDSDMGWYRQAPGDECELVSTISSLGGTYYADSVKGRFTISHDNAKNTVYLQMNSLKPHDTAVYYCAPGTDRYSDCPNEYSVWGQGTQVTVSS
notes: as for B1
In the assay with TSLP-Fc antigen, B4 returned an equilibrium dissociation constant (Kd) of 0.0945 nM, a koff of 0.000263 s⁻¹ and a kon of 2.78e+06 M⁻¹ s⁻¹.

B5: Nb7-54 (VHH)
VHH: QVQLQESGGGSVQAGETLRLSCTASGFTFDDSDMGWYRQAPGNECELVSIISSDGMTYYADSVKGRFTISQDNAKNTVYLQMNSLKPEDTAVYYCAATKYSSDYDVAEDWRRGVCGDMDYWGKGTQVTVSS
notes: as for B1
For B5, the “IC50 (read off the curve)” value with TSLP-Biotin protein was approximately 0.2 µg/mL. Besides, in the assay with TSLP-Fc antigen, binding was characterised by a dissociation constant (Kd) of 0.226 nM, the koff was determined as 0.000588 s⁻¹ and the kon is 2.61e+06 M⁻¹ s⁻¹.

B6: Bi-HuNb5-31 (VHH)
chain: EVQLLESGGGLVQPGGSLRLSCTASGFTSGGSDMGWYRQAPGNECDLVSYISSDGSTYYADSVKGRFTISQDNAKNTVYLQMNSLKPEDTAVYYCAATDYGLGPPPSSTGQCYGMDYWGKGTLVTVSSGGGGSGGGGSGGGGSGGGGSEVQLLESGGGLVQPGGSLRLSCTASGFTSGGSDMGWYRQAPGNECDLVSYISSDGSTYYADSVKGRFTISQDNAKNTVYLQMNSLKPEDTAVYYCAATDYGLGPPPSSTGQCYGMDYWGKGTLVTVSS
notes: as for B2
B6 gave an IC50 in assay [1] of 0.0759 µg/mL. The “IC50 of inhibition … in BaF3/TSLPR-IL7R cells” value with human TSLP factor came out at 0.0797 ug/ml.

As a reminder, the Kd is the free concentration of one partner at which half of the binding sites on the other are occupied at equilibrium, for simple one-to-one binding. A low value points to higher affinity. A word on the koff: it is a measure of how fast the partners let go of each other. Broadly, the kon is the rate constant with which the complex forms. Low values mean slow association, high ones fast association. As usually defined, the IC50 is the concentration that inhibits the measured activity by half.
